Patent US20090124537A1
Bridges are numbered along the chain shown (N, C = ends). Where no end group is shown, it is not given here.

Key:
[1] = target: BMP-7 receptor of ROS cell plasma membrane fraction (ROS cell type II BMP receptor) (rat); assay: cell-based or functional assay
[2] = target: BMP-7 receptor of ROS cell plasma membrane fraction (ROS cell type II BMP receptor) (rat); assay: radioligand receptor assay, displacement of 125I-BMP-7 from ROS cell plasma membranes
[3] = target: BMP-7 receptor of ROS cell plasma membrane fraction (ROS cell type II BMP receptor) (rat); assay: radioligand receptor assay, 125I-BMP-7 on ROS cell plasma membranes

With CYFDDSSNVIC (disulfide 1-11 (inferred)) [F2-2] the potentiation of BMP-7 induced cell responsiveness at 0.6-60 µM peptide (ROS cell alkaline phosphatase assay) [1] was 20% and the IC50 [2] was 1000 nM.

CCFINPETVCC (cyclized (disulfide bond between cysteines)) [H-2C] gave a peptide concentration that potentiated the binding of 125I-labeled BMP-7 [3] of 8 µM and a 50% inhibition of cellular responsiveness to BMP-7 (ROS cell alkaline phosphatase assay) [1] of 5 µM.

CFRDLGWQDWIIAPC (disulfide 1-15 (inferred)) [F1-2] showed a 50% inhibition of the cell responsive to BMP-7 (ROS cell alkaline phosphatase assay) [1] of 10 µM and a concentration required to inhibit the binding of 125I-labeled BMP-7 [2] of 179 µM.
